According to patent US20080058263A1 (published 2008):
Substitutions are numbered along the chain they refer to.

B1: 41-9 (ligand)
chain: AHYNTEILKFMDVYQRSYCHPREVCIDVGKEYPDEIEYIFKPSCVPLMRCGGCCNDEGLECVPTEESNITMQIMRITVPLSQGPKPVTISFLQHNKCECRPKKD
B2: 41-11 (ligand)
chain: B1 chain with D56S, E60Q
B3: 43-9 (ligand)
chain: B1 chain with S43P, P46S, L47V, M48Y
B4: 43-11 (ligand)
chain: B1 chain with S43P, P46S, L47V, M48Y, D56S, E60Q
B5: 21-3 (ligand)
chain: AHYNTEILKSIDNEWRKTQCMPREVCIDVGKEYPDEIEYIFKPSCVPLMRCGGCCNSEGLQCVPTEESNITMQIMRIKPHQGQHIGEMSFLQHNKCECRPKKD
B6: 42-6 (ligand)
chain: AHYNTEILKFMDVYQRSYCHPREVCIDVGKEFGVATNTFFKPPCVSVYRCGGCCNDEGLECMNTSTSYLSKTLFEIKPHQGQHIGEMSFANHTSCRCMSKLD
B7: 42-8 (ligand)
chain: B6 chain with D56S, E60Q
B8: 34-14 (ligand)
chain: GQNHHEVVKSIDNEWRKTQCMPIETLVDIFQEFGVATNTFFKPSCVPLMRCGGCCNDEGLECMNTSTSYLSKTLFEITVPLSQGPKPVTISFANHTSCRCMSKLD
B9: 44-2 (ligand)
chain: AHYNTEILKFMDVYQRSYCHPREVCIDVGKEFGVATNTFFKPSCVPLMRCGGCCNDEGLECMNTSTSYLSKTLFEIKPHQGQHIGEMSFLQHNKCECRPKKD
B10: 44-4 (ligand)
chain: B9 chain with D56S, E60Q
B11: 34-15 (ligand)
chain: GQNHHEVVKSIDNEWRKTQCMPIETLVDIFQEFGVATNTFFKPSCVPLMRCGGCCNSEGLQCVPTEESNITMQIMRITVPLSQGPKPVTISFANHTSCRCMSKLD
B12: 42-9 (ligand)
chain: AHYNTEILKFMDVYQRSYCHPREVCIDVGKEFGVATNTFFKPPCVSVYRCGGCCNDEGLECVPTEESNITMQIMRITVPLSQGPKPVTISFLQHNKCECRPKKD
B13: 42-13 (ligand)
chain: B12 chain with L92A, Q93N, N95T, K96S, E98R, R100M, P101S, K103L
B14: 42-11 (ligand)
chain: B12 chain with D56S, E60Q
B15: 42-15 (ligand)
chain: B12 chain with D56S, E60Q, L92A, Q93N, N95T, K96S, E98R, R100M, P101S, K103L
B16: 41-14 (ligand)
chain: AHYNTEILKFMDVYQRSYCHPREVCIDVGKEYPDEIEYIFKPSCVPLMRCGGCCNDEGLECMNTSTSYLSKTLFEITVPLSQGPKPVTISFANHTSCRCMSKLD
B17: 43-14 (ligand)
chain: B16 chain with S43P, P46S, L47V, M48Y
B18: 41-16 (ligand)
chain: B16 chain with D56S, E60Q
B19: 43-16 (ligand)
chain: B16 chain with S43P, P46S, L47V, M48Y, D56S, E60Q
B20: 42-10 (ligand)
chain: AHYNTEILKFMDVYQRSYCHPREVCIDVGKEFGVATNTFFKPPCVSVYRCGGCCNDEGLECMNTSTSYLSKTLFEITVPLSQGPKPVTISFLQHNKCECRPKKD
B21: 42-12 (ligand)
chain: B20 chain with D56S, E60Q
B22: 41-6 (ligand)
chain: AHYNTEILKFMDVYQRSYCHPREVCIDVGKEYPDEIEYIFKPSCVPLMRCGGCCNDEGLECMNTSTSYLSKTLFEIKPHQGQHIGEMSFANHTSCRCMSKLD
B23: 44-8 (ligand)
chain: B6 chain with P43S, S46P, V47L, Y48M, D56S, E60Q
B24: 42-1 (ligand)
chain: AHYNTEILKFMDVYQRSYCHPREVCIDVGKEFGVATNTFFKPPCVSVYRCGGCCNDEGLECVPTEESNITMQIMRIKPHQGQHIGEMSFLQHNKCECRPKKD
B25: 21-4 (ligand)
chain: AHYNTEILKSIDNEWRKTQCMPREVCIDVGKEYPDEIEYIFKPSCVPLMRCGGCCNSEGLQCMNTSTSYLSKTLFEIKPHQGQHIGEMSFLQHNKCECRPKKD

These binders were tested against T1, VEGFR-2-Fc (UniProt P35968 20-322) (assay: receptor-Fc IP).
T1 construct: domain: first 3 Ig domains; conditioned supernatant of 293T cells; also called VEGFR-2-Fc fusion protein; not shown: Fc fragment of the pIg vector
Summary of the method: (§1)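 Binding of ligand from sample supernatant measured by pentahistidine-antibody immunoprecipitation. IP mix: PBS with 1.5% BSA, 0.06% Tween 20, 3 μg/ml heparin and 400 ng/ml fusion protein, added 1:2 to sample supernatant.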

T1 sequence (P35968 20-322): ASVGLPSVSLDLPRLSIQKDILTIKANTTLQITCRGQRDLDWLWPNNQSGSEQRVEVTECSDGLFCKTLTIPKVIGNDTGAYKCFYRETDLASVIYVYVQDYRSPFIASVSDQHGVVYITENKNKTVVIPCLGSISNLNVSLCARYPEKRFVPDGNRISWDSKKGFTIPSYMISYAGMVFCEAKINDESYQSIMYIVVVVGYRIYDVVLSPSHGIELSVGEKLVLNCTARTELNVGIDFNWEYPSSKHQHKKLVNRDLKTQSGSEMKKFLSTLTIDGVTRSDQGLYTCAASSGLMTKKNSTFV

Binding result, no binding:
B1
B2
B3
B4
B5
B6
B7
B8
B9
B10
B11
B12
B13
B14
B15
B16
B17
B18
B19
B20
B21
B22
B23
B24
B25

These binders were tested against T2, VEGFR-1-Fc (UniProt P17948 27-338) (assay: receptor-Fc IP).
T2 construct: domain: first three Ig domains; expressed in Drosophila S2 cells, purified on Protein A sepharose; also called VEGFR-1-Fc fusion protein; not shown: Fc fragment from the Signal-pIgPlus vector
Summary of the method: as §1

T2 sequence (P17948 27-338): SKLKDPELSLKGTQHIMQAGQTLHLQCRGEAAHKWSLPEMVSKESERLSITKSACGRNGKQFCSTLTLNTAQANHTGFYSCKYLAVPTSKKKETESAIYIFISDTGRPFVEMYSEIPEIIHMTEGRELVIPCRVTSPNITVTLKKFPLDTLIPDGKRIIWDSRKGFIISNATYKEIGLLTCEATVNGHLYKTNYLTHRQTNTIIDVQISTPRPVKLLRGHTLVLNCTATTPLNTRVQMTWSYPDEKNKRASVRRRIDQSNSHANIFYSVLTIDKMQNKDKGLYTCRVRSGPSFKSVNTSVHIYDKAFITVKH

Binding result, no binding:
B1
B2
B3
B4
B5
B6
B7
B8
B9
B10
B11
B12
B13
B14
B15
B16
B17
B18
B19
B20
B21
B22
B23
B24
B25

These binders were tested against T3, VEGFR-3-Fc (UniProt P35916 25-328) (assay: receptor-Fc IP).
T3 construct: domain: first three Ig domains; conditioned supernatant of 293T cells; also called VEGFR-3-Fc fusion protein; not shown: Fc fragment of the pIg vector
T3 sequence (looked up): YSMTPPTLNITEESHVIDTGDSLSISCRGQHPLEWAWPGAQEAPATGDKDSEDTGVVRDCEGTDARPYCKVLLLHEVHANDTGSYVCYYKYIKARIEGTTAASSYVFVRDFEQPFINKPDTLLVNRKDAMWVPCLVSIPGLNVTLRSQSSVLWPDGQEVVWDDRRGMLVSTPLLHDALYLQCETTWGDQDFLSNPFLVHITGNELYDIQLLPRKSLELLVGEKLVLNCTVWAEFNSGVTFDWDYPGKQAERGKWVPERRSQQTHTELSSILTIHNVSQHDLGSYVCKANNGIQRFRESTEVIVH
Summary of the method: as §1

Binding result, no binding:
B1
B2
B3
B4
B5
B6
B7
B8
B9
B10
B11
B12
B13
B14
B15
B16
B17
B18
B19
B20
B21
B22
B23
B24
B25
